Tests used:
[1] = tested on: apoCIII; conditions: transcriptional level; cited from earlier work
[2] = tested on: ABCA1-mediated cholesterol efflux from mouse peritoneal macrophages; assay: Cholesterol efflux to apoA-I from cholesterol-loaded macrophages; conditions: 1 and 5 μM ATRA
[3] = target: T1, RARγ/RXRα heterodimer (Homo sapiens, UniProt P13631;P19793 P13631:1-454,P19793:1-462); assay: EMSA; neither bound nor competed with ABCA1 DR4; conditions: tags: TNT wheat germ; pCMX-hRARγ, pCMX-hRXRα; label: 32P
From the text: (§1) RARs and LXRα and RXRα proteins were in vitro translated by using the TNT-coupled wheat germ extract systems (Promega). Double-strand oligonucleotides corresponding to the wild-type ABCA1 DR4 element 5′-[…]-3′ and the mutated sequence 5′-[…]-3′ were used, and electrophoresis mobility shift assays (EMSAs) were done with ³²P-labeled probes as described previously (6). For competition experiments, a 30-fold molar excess of cold unlabeled competitor DNA relative to labeled DNA was used. […] The oligonucleotides 5′-[…]-3′ and 5′-[…]-3′ were, respectively, used in EMSA analysis of DR4 elements a and b of the murine SREBP-1c promoter.

[4] = target: T2, RARβ/RXRα heterodimer (Homo sapiens, UniProt P10826;P19793 P10826:1-455,P19793:1-462); assay: EMSA; not shown; conditions: tags: TNT wheat germ; label: 32P
From the text: as §1

[5] = target: T3, RARα/RXRα heterodimer (Homo sapiens, UniProt P10276;P19793 P10276:1-462,P19793:1-462); assay: EMSA; not shown; conditions: tags: TNT wheat germ; label: 32P
From the text: as §1

[6] = target: T2, RARβ/RXRα heterodimer; assay: EMSA; data not shown; conditions: tags: TNT wheat germ; label: 32P
From the text: as §1
(§2) To further assess the possibility of a direct interaction between RARγ and the human ABCA1 promoter, a gel shift assay by using oligonucleotides consisting of the DR4 element was carried out. […] It was also determined whether RARα and RARβ could bind the ABCA1 DR4 element.

[7] = target: T3, RARα/RXRα heterodimer; assay: EMSA; data not shown; conditions: tags: TNT wheat germ; label: 32P
From the text: as §1, §2

[8] = target: T4, RARβ without RXRα (Homo sapiens, UniProt P10826 P10826:1-455); assay: EMSA; complex only in presence of RXRα; data not shown; conditions: tags: TNT wheat germ; label: 32P
T4 sequence: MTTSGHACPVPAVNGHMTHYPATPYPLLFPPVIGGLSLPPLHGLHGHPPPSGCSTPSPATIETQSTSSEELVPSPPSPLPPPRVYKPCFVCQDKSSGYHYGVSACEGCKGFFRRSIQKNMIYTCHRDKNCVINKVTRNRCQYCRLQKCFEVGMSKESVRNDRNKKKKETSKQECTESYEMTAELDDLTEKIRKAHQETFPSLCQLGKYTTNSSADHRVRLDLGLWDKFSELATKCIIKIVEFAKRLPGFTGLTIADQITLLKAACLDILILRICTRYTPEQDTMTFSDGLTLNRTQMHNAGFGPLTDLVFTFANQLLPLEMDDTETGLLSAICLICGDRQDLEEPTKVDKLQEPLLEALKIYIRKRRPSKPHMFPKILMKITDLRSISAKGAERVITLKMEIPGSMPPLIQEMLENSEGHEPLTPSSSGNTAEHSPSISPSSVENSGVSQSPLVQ
From the text: as §1, §2

[9] = target: T5, RARα without RXRα (Homo sapiens, UniProt P10276 P10276:1-462); assay: as above; conditions: tags: TNT wheat germ; label: 32P
T5 sequence: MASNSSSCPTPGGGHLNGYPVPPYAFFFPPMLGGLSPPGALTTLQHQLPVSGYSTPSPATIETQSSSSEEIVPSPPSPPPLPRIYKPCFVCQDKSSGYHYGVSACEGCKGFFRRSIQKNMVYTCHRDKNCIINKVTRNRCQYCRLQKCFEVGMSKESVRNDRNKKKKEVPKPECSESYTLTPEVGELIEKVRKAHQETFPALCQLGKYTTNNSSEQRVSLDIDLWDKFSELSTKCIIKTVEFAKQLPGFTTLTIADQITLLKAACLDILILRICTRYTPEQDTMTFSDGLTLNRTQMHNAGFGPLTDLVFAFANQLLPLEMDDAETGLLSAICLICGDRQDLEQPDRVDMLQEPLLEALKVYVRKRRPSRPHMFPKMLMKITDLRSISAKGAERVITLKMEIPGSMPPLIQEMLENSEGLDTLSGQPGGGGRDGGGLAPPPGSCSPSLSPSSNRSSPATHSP
From the text: as §1, §2

[10] = target: T6, RARγ without RXRα (Homo sapiens, UniProt P13631 P13631:1-454); assay: as above; conditions: tags: TNT wheat germ; label: 32P
T6 sequence: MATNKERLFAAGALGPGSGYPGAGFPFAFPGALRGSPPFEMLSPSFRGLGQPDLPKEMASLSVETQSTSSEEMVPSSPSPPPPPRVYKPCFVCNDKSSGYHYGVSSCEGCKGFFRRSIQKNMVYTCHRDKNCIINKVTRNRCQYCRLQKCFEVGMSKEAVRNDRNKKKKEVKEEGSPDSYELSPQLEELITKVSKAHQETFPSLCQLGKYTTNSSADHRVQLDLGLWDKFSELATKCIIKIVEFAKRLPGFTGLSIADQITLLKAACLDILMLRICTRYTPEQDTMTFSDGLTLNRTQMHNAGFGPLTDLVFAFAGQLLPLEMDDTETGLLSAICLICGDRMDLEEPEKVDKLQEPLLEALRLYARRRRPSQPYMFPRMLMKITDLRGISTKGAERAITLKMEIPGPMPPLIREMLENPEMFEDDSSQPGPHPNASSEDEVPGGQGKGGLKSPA
From the text: as §1, §2

[11] = target: T1, RARγ/RXRα heterodimer; assay: EMSA; supershift with anti-RXRα and anti-RARγ; competed by 30-fold cold wild-type DR4; conditions: tags: TNT wheat germ; pCMX-hRARγ, pCMX-hRXRα; label: 32P
From the text: as §1, §2

[12] = target: T1, RARγ/RXRα heterodimer; assay: EMSA; neither bound nor competed with ABCA1 DR4; conditions: tags: TNT wheat germ; pCMX-hRARγ, pCMX-hRXRα; label: 32P; remark: listed apart in the source

T3 sequence (P19793 whole entry, one chain of several): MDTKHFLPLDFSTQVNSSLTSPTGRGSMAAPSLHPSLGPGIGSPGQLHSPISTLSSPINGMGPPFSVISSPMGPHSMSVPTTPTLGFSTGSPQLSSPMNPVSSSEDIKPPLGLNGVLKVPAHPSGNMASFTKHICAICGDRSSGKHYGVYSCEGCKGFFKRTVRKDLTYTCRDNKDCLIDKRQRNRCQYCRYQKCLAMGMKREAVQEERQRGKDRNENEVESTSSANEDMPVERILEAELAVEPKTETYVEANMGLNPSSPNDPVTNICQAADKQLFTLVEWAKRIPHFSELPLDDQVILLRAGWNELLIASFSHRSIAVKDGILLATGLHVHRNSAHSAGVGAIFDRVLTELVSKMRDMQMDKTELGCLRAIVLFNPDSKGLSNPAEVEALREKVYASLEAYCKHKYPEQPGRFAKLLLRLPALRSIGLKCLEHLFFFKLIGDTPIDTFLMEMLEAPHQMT
T2 sequence (P19793 whole entry, one chain of several): as above
T1 sequence (P19793 whole entry, one chain of several): as above

In the case of `CC1=C(/C=C/C(C)=C/C=C/C(C)=C\C(=O)O)C(C)(C)CCC1` [13-cRA, isotretinoin], the “hepatic apoCIII expression” value [1] is listed as “increases hepatic apoCIII expression”.

In the case of `O=S(=O)(c1ccccc1)N(CC(F)(F)F)c1ccc(C(O)(C(F)(F)F)C(F)(F)F)cc1` [TO-901317], the “increase in cholesterol efflux to apoA-I, ATRA compared with TO-901317” value [2] is reported as “comparable increase in cholesterol efflux to apoA-I”.

B1: SREBP-1c DR4 element a (dsDNA)
DNA 1: ACTGCAGTGACCGCCAGTAACCCCAGC
DNA 2: GCTGGGGTTACTGGCGGTCACTGCAGT
B1: no binding [3]; no binding [4]; no binding [5].

B2: ABCA1 DR4 element (dsDNA)
DNA 1: ACTGGGCTTTGACCGATAGTAACCTCTGCGCTCG
DNA 2: CGAGCGCAGAGGTTACTATCGGTCAAAGCCCAGT
B2: binds [6]; binds [7]; no binding [8]. B2: no binding [9]; no binding [10]; binds [11].

B3: SREBP-1c DR4 element b (dsDNA)
DNA 1: ACTGGGACGCCCGCTAGTAACCCCGGC
DNA 2: GCCGGGGTTACTAGCGGGCGTCCCAGT
B3: no binding [12]; no binding [4]; no binding [5].
